Blank lines part the entries; values can stand above or below the binder they belong to.
How the values were obtained:
[1] = target: T1, human EGFR on tumor cells (human, UniProt P00533 25-1210); assay: cell-based or functional assay
[2] = target: T1, human EGFR on tumor cells; assay: cell-based or functional assay; remark: listed apart in the source
[3] = target: T2, keyhole limpet haemocyanin (KLH, Sigma, H8283) (keyhole limpet, UniProt Q10583 17-3414; Q10584 20-3421, limits assumed); assay: ELISA, KLH coated at 5 ug/mL, 100 nM antibody, anti-human IgG-HRP
T2 construct: Bought preparation coated on the plate in the polyspecificity ELISA
Method: (§1) (1) Antigen coating: cardiolipin (Sigma, cat. C0563), keyhole limpet haemocyanin (KLH, Sigma, H8283), LPS (Sigma, L6529), ssDNA (Sigma, D8899), dsDNA (Sigma, D4522) and Insulin (abs42019847) were plated at 50 μg/mL, 5 μg/mL, 10 μg/mL, 1 μg/mL, 1 μg/mL, g/mL, and 50 μL per well, and incubated at 4° C. overnight;
(§2) (4) 50 μl anti-human IgG-HRP conjugate (Sigma, AP113P, 1:8000 dilution) was added to each well; the plate was incubated for 1 h at room temperature and washed 6 times with 0.05% PBST;

Insulin (abs42019847) = target: T3, Insulin (abs42019847); assay: ELISA, insulin coated on the plate, 100 nM antibody, anti-human IgG-HRP
T3 construct: Coated on the plate in the polyspecificity ELISA
Method: as §1, §2

[4] = target: T4, human CD3ε/δ (ACRO systems, CDD-H52W1) (human, UniProt P07766 23-126; P04234 22-105); assay: BLI, antibody captured on AHC sensor, 30 C
T4 construct: bought recombinant heterodimer; also called human CD3 epsilon/delta; Human CD3ε/CD3δ

[5] = target: T5, recombinant tumor antigen human EGFR (ACRO systems, EGR-H5222) (human, UniProt P00533 25-645); assay: BLI, antibody captured on AHC sensor, 30 C
T5 construct: bought recombinant protein
From the text: After the chip captures the bispecific antibodies, it was allowed to bind and dissociate with different concentrations of analytes to obtain the KD value of the interaction. The experimental parameters are as follows: Baseline1: 60s, Loading: 240s, Baseline2: 180s, Association: 240s, Dissociation: 600s, Loading Response: 1.9-2.1 (nm), High sensitivity kinetics: 2 Hz. Kinetic constants were derived based on 1:1 Langmuir binding to obtain equilibrium dissociation constants (KD).

[6] = target: T4, human CD3ε/δ (ACRO systems, CDD-H52W1); assay: serum-stability ELISA, Day 1 vs Day 0
Method: (§3) The samples to be tested were centrifuged at 4° C. at 12000 rpm for 30 minutes to remove the precipitate. 200 μl of each sample to be tested (0.5 mg/ml) was collected in a 1.5 ml Eppendorf tube. An equal volume of human serum (GEMINI, H2OYOOK) was added, mixed thoroughly, and the mixture was incubated in a 37° C. constant temperature CO₂ incubator. For a total of 10 days, 40 μl samples was aspirated every day and stored at −20° C.
(§4) Enzyme-linked immunosorbent assay (ELISA) was used to test the bispecific antibodies' binding to human CEA and human CD3 epsilon/delta antigen. The steps are as follows: the antigen human CD3ε/δ (ACRO systems, CDD-H52W1) and the recombinant tumor antigen human CEA (CEACAM-5/CD66e, ACRO systems, CE5-H5226) were diluted to 1 μg/ml with PBS, and then added to the 96-well plate at 100 μl per well. The wells were coated overnight at 4° C. After washing 3 times with 0.05% PBST, 200 μl 5% skimmed milk powder was added to each well and incubated at 37° C. for 2 h. After washing 3 times with 0.05% PBST, 100 μl primary antibody sample (10 μg/ml) was added to each well, and incubated at 37° C. for 2 h. After washing 3 times with 0.05% PBST, 100 μl (1:6000) diluted secondary antibody goat anti-human Fc-HRP (sigma, A2170) was added to each well, incubated at room temperature for 1 h. After washing 8 times with 0.05% PBST, 50 μl TMB color developing solution was added to each well, and incubated at room temperature for 10-15 min. 50 μl 1 mM HCl was added to each well to stop the color development. 450 nm Absorbance (OD) was read.
(§5) The binding of antibodies to antigen was calculated according to the following formula: Binding (%)=[(ODdayn−ODb)/(ODday0−ODb)]×100%. ODdayn: experimental well (the protein was stored in the serum for n days); ODday0: control well (the protein was not stored in the serum); ODb: blank well (no primary antibody added).

[7] = target: T4, human CD3ε/δ (ACRO systems, CDD-H52W1); assay: serum-stability ELISA, Day 2 vs Day 0
Method: as §3, §4, §5

[8] = target: T4, human CD3ε/δ (ACRO systems, CDD-H52W1); assay: serum-stability ELISA, Day 5 vs Day 0
Method: as §3, §4, §5

[9] = target: T4, human CD3ε/δ (ACRO systems, CDD-H52W1); assay: serum-stability ELISA, Day 6 vs Day 0
Method: as §3, §4, §5

[10] = target: T4, human CD3ε/δ (ACRO systems, CDD-H52W1); assay: serum-stability ELISA, Day 7 vs Day 0
Method: as §3, §4, §5

[11] = target: T4, human CD3ε/δ (ACRO systems, CDD-H52W1); assay: serum-stability ELISA, Day 9 vs Day 0
Method: as §3, §4, §5

[12] = target: T4, human CD3ε/δ (ACRO systems, CDD-H52W1); assay: serum-stability ELISA, Day 10 vs Day 0
Method: as §3, §4, §5

[13] = target: T4, human CD3ε/δ (ACRO systems, CDD-H52W1); assay: serum-stability ELISA, Day 0 (reference)

Absorbance value (450 nm, polyspecificity ELISA) [3]: 0.96
Absorbance value (450 nm, polyspecificity ELISA) (Insulin (abs42019847)): 1.01
B1: EGFR-CD3 bispecific antibody 401 (bispecific antibody, human IgG4 S228P, kappa, F234A L235A)
heavy: EVKLLESGGGLVQPKGSLKLSCAASGFTFNTYAMNWVRQAPGKGLEWVARIRSKYNNYATYYADSVKDRFTISRDDSQSILYLQMNNLKTEDTAMYYCVRHGNFGNSYVSWFAYWGQGTLVTVSSASTKGPSVFPLAPCSRSTSESTAALGCLVKDYFPEPVTVSWNSGALTSGVHTFPAVLQSSGLYSLSSVVTVPSSSLGTKTYTCNVDHKPSNTKVDKRVESKYGPPCPPCPAPEAAGGPSVFLFPPKPKDTLMISRTPEVTCVVVDVSQEDPEVQFNWYVDGVEVHNAKTKPREEQFNSTYRVVSVLTVLHQDWLNGKEYKCKVSNKGLPSSIEKTISKAKGQPREPQVYTLPPCQEEMTKNQVSLWCLVKGFYPSDIAVEWESNGQPENNYKTTPPVLDSDGSFFLYSRLTVDKSRWQEGNVFSCSVMHEALHNHYTQKSLSLSL
chain: QVQLQESGGGSVQAGGSLKLSCAASGRGFSRYAMGWFRQAPGQDREFVATISWTNSTDYADSVKGRFAISRDNAKNTAYLQMNSLKPEDTAVYYCAADKWASSTRSIDYDYWGQGIQVTVSSESKYGPPCPPCPAPEAAGGPSVFLFPPKPKDTLMISRTPEVTCVVVDVSQEDPEVQFNWYVDGVEVHNAKTKPREEQFNSTYRVVSVLTVLHQDWLNGKEYKCKVSNKGLPSSIEKTISKAKGQPREPQVCTLPPSQEEMTKNQVSLSCAVKGFYPSDIAVEWESNGQPENNYKTTPPVLDSDGSFFLVSRLTVDKSRWQEGNVFSCSVMHEALHNRFTQKSLSLSL
light: QAVVTQESALTTSPGETVTLTCRSSTGAVTTSNYANWVQEKPDHLFTGLIGGTNKRAPGVPARFSGSLIGDKAALTITGAQTEDEAIYFCALWYSNLWVFGGGTKVEIKRTVAAPSVFIFPPSDEQLKSGTASVVCLLNNFYPREAKVQWKVDNALQSGNSQESVTEQDSKDSTYSLSSTLTLSKADYEKHKVYACEVTHQGLSSPVTKSFNRGEC
EC50 of tumor cell killing, MDA-MB-468 cells with human PBMC (E:T 10:1, 3 days, CCK8) [1]: 0.0208 pM
EC50 of tumor cell killing, NCI-H1573 cells with human PBMC (E:T 10:1, 3 days, CCK8) [1]: 5.83 pM
EC50 of tumor cell killing, NCI-H1650 cells with human PBMC (E:T 10:1, 3 days, CCK8) [1]: 98.6 pM
EC50 of tumor cell killing, NCI-H2228 cells with human PBMC (E:T 10:1, 3 days, CCK8) [1]: 114 pM
EC50 of tumor cell killing, SK-OV-3 cells with human PBMC (E:T 10:1, 3 days, CCK8) [1]: 11.3 pM
EC50 of tumor cell killing, MCF-7 cells with human PBMC (E:T 10:1, 3 days, CCK8) [2]: 206 pM
EC50 of tumor cell killing, N87 cells with human PBMC (E:T 10:1, 3 days, CCK8) [2]: 1310 pM
EC50 of tumor cell killing, NCI-H157 cells with human PBMC (E:T 10:1, 3 days, CCK8) [2]: 10000 pM
EC50 of tumor cell killing, NCI-H441 cells with human PBMC (E:T 10:1, 3 days, CCK8) [2]: 5.38 pM

Kd [4]: 2710 pM
koff [4]: 0.000491 s⁻¹
kon [4]: 181000 M⁻¹ s⁻¹
Kd [5]: 2070 pM
koff [5]: 0.00201 s⁻¹
kon [5]: 969000 M⁻¹ s⁻¹
B2: EGFR-CD3 bispecific antibody 401 (bispecific antibody, human IgG4 S228P, kappa, F234A L235A)
heavy: EVKLLESGGGLVQPKGSLKLSCAASGFTFNTYAMNWVRQAPGKGLEWVARIRSKYNNYATYYADSVKDRFTISRDDSQSILYLQMNNLKTEDTAMYYCVRHGNFGNSYVSWFAYWGQGTLVTVSSASTKGPSVFPLAPCSRSTSESTAALGCLVKDYFPEPVTVSWNSGALTSGVHTFPAVLQSSGLYSLSSVVTVPSSSLGTKTYTCNVDHKPSNTKVDKRVESKYGPPCPPCPAPEAAGGPSVFLFPPKPKDTLMISRTPEVTCVVVDVSQEDPEVQFNWYVDGVEVHNAKTKPREEQFNSTYRVVSVLTVLHQDWLNGKEYKCKVSNKGLPSSIEKTISKAKGQPREPQVYTLPPCQEEMTKNQVSLWCLVKGFYPSDIAVEWESNGQPENNYKTTPPVLDSDGSFFLYSRLTVDKSRWQEGNVFSCSVMHEALHNHYTQKSLSLSL
chain: QVQLQESGGGSVQAGGSLKLSCAASGRGFSRYAMGWFRQAPGQDREFVATISWTNSTDYADSVKGRFAISRDNAKNTAYLQMNSLKPEDTAVYYCAADKWASSTRSIDYDYWGQGIQVTVSSESKYGPPCPPCPAPEAAGGPSVFLFPPKPKDTLMISRTPEVTCVVVDVSQEDPEVQFNWYVDGVEVHNAKTKPREEQFNSTYRVVSVLTVLHQDWLNGKEYKCKVSNKGLPSSIEKTISKAKGQPREPQVCTLPPSQEEMTKNQVSLSCAVKGFYPSDIAVEWESNGQPENNYKTTPPVLDSDGSFFLVSRLTVDKSRWQEGNVFSCSVMHEALHNRFTQKSLSLSL
light: QAVVTQESALTTSPGETVTLTCRSSTGAVTTSNYANWVQEKPDHLFTGLIGGTNKRAPGVPARFSGSLIGDKAALTITGAQTEDEAIYFCALWYSNLWVFGGGTKVEIKRTVAAPSVFIFPPSDEQLKSGTASVVCLLNNFYPREAKVQWKVDNALQSGNSQESVTEQDSKDSTYSLSSTLTLSKADYEKHKVYACEVTHQGLSSPVTKSFNRGEC
notes: VHH-hole chain assembled from VHH and hole-Fc with hinge

Kd [4]: 2650 pM
koff [4]: 0.000469 s⁻¹
kon [4]: 177000 M⁻¹ s⁻¹
Kd [5]: 2200 pM
koff [5]: 0.00238 s⁻¹
kon [5]: 1.08e+06 M⁻¹ s⁻¹
B3: EGFR-CD3 bispecific antibody 404 (bispecific antibody, human IgG4 S228P, kappa, F234A L235A)
chain: QVQLQESGGGSVQAGGSLKLSCAASGRGFSRYAMGWFRQAPGQDREFVATISWTNSTDYADSVKGRFAISRDNAKNTAYLQMNSLKPEDTAVYYCAADKWASSTRSIDYDYWGQGIQVTVSSESKYGPPCPPCPAPEAAGGPSVFLFPPKPKDTLMISRTPEVTCVVVDVSQEDPEVQFNWYVDGVEVHNAKTKPREEQFNSTYRVVSVLTVLHQDWLNGKEYKCKVSNKGLPSSIEKTISKAKGQPREPQVYTLPPCQEEMTKNQVSLWCLVKGFYPSDIAVEWESNGQPENNYKTTPPVLDSDGSFFLYSRLTVDKSRWQEGNVFSCSVMHEALHNHYTQKSLSLSL
heavy: EVKLLESGGGLVQPKGSLKLSCAASGFTFNTYAMNWVRQAPGKGLEWVARIRSKYNNYATYYADSVKDRFTISRDDSQSILYLQMNNLKTEDTAMYYCVRHGNFGNSYVSWFAYWGQGTLVTVSSASTKGPSVFPLAPCSRSTSESTAALGCLVKDYFPEPVTVSWNSGALTSGVHTFPAVLQSSGLYSLSSVVTVPSSSLGTKTYTCNVDHKPSNTKVDKRVESKYGPPCPPCPAPEAAGGPSVFLFPPKPKDTLMISRTPEVTCVVVDVSQEDPEVQFNWYVDGVEVHNAKTKPREEQFNSTYRVVSVLTVLHQDWLNGKEYKCKVSNKGLPSSIEKTISKAKGQPREPQVCTLPPSQEEMTKNQVSLSCAVKGFYPSDIAVEWESNGQPENNYKTTPPVLDSDGSFFLVSRLTVDKSRWQEGNVFSCSVMHEALHNRFTQKSLSLSL
light: QAVVTQESALTTSPGETVTLTCRSSTGAVTTSNYANWVQEKPDHLFTGLIGGTNKRAPGVPARFSGSLIGDKAALTITGAQTEDEAIYFCALWYSNLWVFGGGTKVEIKRTVAAPSVFIFPPSDEQLKSGTASVVCLLNNFYPREAKVQWKVDNALQSGNSQESVTEQDSKDSTYSLSSTLTLSKADYEKHKVYACEVTHQGLSSPVTKSFNRGEC
notes: VHH-knob chain assembled from VHH and knob-Fc with hinge

Binding % [6]: 103%
Binding % [7]: 106%
Binding % [8]: 104%
Binding % [9]: 102%
Binding % [10]: 98.2%
Binding % [11]: 101%
Binding % [12]: 104%
Binding % [13]: 100%
B4: 312 (TA7), configuration of FIG. 1X (bispecific antibody)
heavy: EVQLVQSGAEVKKPGASVKVSCKASGFTFTSYYIHWVRQAPGQGLEWIGWIYPENDNTKYNEKFKDRVTITADTSTSTAYLELSSLRSEDTAVYYCARDGYSRYYFDYWGQGTLVTVSSASTKGPSVFPLAPCSRSTSESTAALGCLVKDYFPEPVTVSWNSGALTSGVHTFPAVLQSSGLYSLSSVVTVPSSSLGTKTYTCNVDHKPSNTKVDKRVESKYGPPCPPCPAPEAAGGPSVFLFPPKPKDTLMISRTPEVTCVVVDVSQEDPEVQFNWYVDGVEVHNAKTKPREEQFNSTYRVVSVLTVLHQDWLNGKEYKCKVSNKGLPSSIEKTISKAKGQPREPQVYTLPPCQEEMTKNQVSLWCLVKGFYPSDIAVEWESNGQPENNYKTTPPVLDSDGSFFLYSRLTVDKSRWQEGNVFSCSVMHEALHNHYTQKSLSLSLGGGGSGGGGSEVQLVESGGGFVQAGESLTLSCTSSTLTFTPYRMAWYRQAPGKQRDLVADISSGDGRTTNYADFAKGRFTISRDNIKNTVFLRMTNLKPEDTAVYYCNTFVSFVGIARSWGQGTQVTVSS
chain: ESKYGPPCPPCPAPEAAGGPSVFLFPPKPKDTLMISRTPEVTCVVVDVSQEDPEVQFNWYVDGVEVHNAKTKPREEQFNSTYRVVSVLTVLHQDWLNGKEYKCKVSNKGLPSSIEKTISKAKGQPREPQVCTLPPSQEEMTKNQVSLSCAVKGFYPSDIAVEWESNGQPENNYKTTPPVLDSDGSFFLVSRLTVDKSRWQEGNVFSCSVMHEALHNRFTQKSLSLSL
light: DIVMTQSPDSLAVSLGERATINCKSSQSLLNSRTRKNYLAWYQQKPGQSPKLLIYWTSTRKSGVPDRFSGSGSGTDFTLTISSLQAEDVAVYYCKQSFILRTFGQGTKVEIK
notes: not shown: kappa light chain constant domain (CL)
